# Laboratory results as given in patent US20200040059A1 (ALPINE IMMUNE SCIENCES, published 2020).
# Numbering of substitutions follows the chain as printed. Names and notes keep the numbering of the source.
# B1: variant PD-L2 IgV-Fc V89D (Fc fusion, not shown: a dimerising Fc or GST; small tags and cut ends)
# chain: LFTVTVPKELYIIEHGSNVTLECNFDTGSHVNLGAITASLQKVENDTSPHRERATLLEEQLPLGKASFHIPQVQVRDEGQYQCIIIYGDAWDYKYLTLK
# B2: ICOSL variant N52D ECD-Fc fusion (Fc fusion)
# chain: DTQEKEVRAMVGSDVELSCACPEGSRFDLNDVYVYWQTSESKTVVTYHIPQDSSLENVDSRYRNRALMSPAGMLRGDFSLRLFNVTPQDEQKFHCLVLSQSLGFQEVLSVEVTLHVAANFSVPVVSAPHSPSQDELTFTCTSINGYPRPNVYWINKTDNSLLDQALQNDTVFLNMRGLYDVVSVLRIARTPSVNIGCCIENVLLQQNLTVGSQTGNDIGERDKITENPVSTGEKNAAT
# notes: not shown: no entry of the listing is held
# B3: ICOSL variant N52S/S130G/Y152C ECD-Fc fusion (Fc fusion)
# chain: B2 chain with D52S, S130G, Y152C
# notes: not shown: The AAA linker to it is left out
# B4: ICOSL variant N52H/N57Y/Q100P ECD-Fc fusion (Fc fusion)
# chain: B2 chain with D52H, N57Y, Q100P
# notes: as for B2
# B5: ICOSL variant N52S/Y146C/Y152C ECD-Fc fusion (Fc fusion, not shown: a dimerising Fc or GST; small tags and cut ends)
# chain: B2 chain with D52S, Y146C, Y152C
# B6: ICOSL variant F120S/Y152H/N201S ECD-Fc fusion (Fc fusion)
# chain: B2 chain with D52N, F120S, Y152H, N201S
# notes: not shown: C220S/R292C/N297G/V302C) and the AAA linker to it
# Target: PD-1-Fc
# Assay: Fortebio (BLI), PD-1-Fc
row,Binder,Fortebio binding to PD-1-Fc Response Units
1,B1,0.005 Response Units

# Target: human ICOS as used for the 'ICOS OD' read-out of Table 14 (human)
# Assay: binding read as OD; format not described
# Sequence of human ICOS as used for the 'ICOS OD' read-out of Table 14 (human) (Q9Y6W8 whole entry): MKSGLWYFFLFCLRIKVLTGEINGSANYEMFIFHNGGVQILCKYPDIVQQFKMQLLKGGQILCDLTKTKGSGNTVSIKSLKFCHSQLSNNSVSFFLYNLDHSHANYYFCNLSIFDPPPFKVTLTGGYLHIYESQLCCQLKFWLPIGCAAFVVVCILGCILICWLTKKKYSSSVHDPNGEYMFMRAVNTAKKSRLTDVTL
Binder,ICOS OD,ICOS OD parental ratio
B2,1.59 OD,1.85 ratio to WT ICOSL ECD-Fc
B3,0.16 OD,0.19 ratio to WT ICOSL ECD-Fc
B4,1.57 OD,1.83 ratio to WT ICOSL ECD-Fc
B5,1.26 OD,1.47 ratio to WT ICOSL ECD-Fc
B6,0.63 OD,0.73 ratio to WT ICOSL ECD-Fc
